Measurements as given in patent publication US20050287607A1.
No end group written: not given here. *: point of attachment. Biotin = O=C1N[C@H]2[C@H](CS[C@H]2CCCCC(=O)*)N1

How the values were obtained:
Assay in all cases: flow cytometry, R4A-tetramer staining of splenocytes
[1] = target: splenocytes of BALB/c mice immunized with MAP-core (mouse)
[2] = target: splenocytes of BALB/c mice immunized with adjuvant alone (mouse)
[3] = target: peptide-reactive B cells (surface immunoglobulin) in splenocytes of BALB/c mice immunized with MAP-peptide (R4A peptide on a branched polylysine backbone) (mouse)

B1: R4A-tetramer (tetrameric fluorochrome-labeled form of the R4A peptide) (peptide, part only; not given: labeled streptavidin, not shown: large carriers)
peptide: Biotin-DWEYSLWLSN
modifications: also: tetramer with fluorochrome-labeled streptavidin/neutravidin
Q: For B1, which frequency of tetramer-binding cells (percent of the gated population) (% of the gated population) [1] is on record?
A: < 0.05

Q: And the frequency of tetramer-binding cells (percent of the gated population) (% of the gated population) [2]?
A: < 0.05

Q: What about the frequency of cells staining (percent of gated cells) (% of gated cells) [3] of the same binder?
A: 1
